Assays:
[1] = molecular target: T1, EutB subunit of ethanolamine ammonia-lyase (EAL) from the EALH6 construct (S. typhimurium, UniProt P19264 1-453); assay: pull-down
T1 sequence: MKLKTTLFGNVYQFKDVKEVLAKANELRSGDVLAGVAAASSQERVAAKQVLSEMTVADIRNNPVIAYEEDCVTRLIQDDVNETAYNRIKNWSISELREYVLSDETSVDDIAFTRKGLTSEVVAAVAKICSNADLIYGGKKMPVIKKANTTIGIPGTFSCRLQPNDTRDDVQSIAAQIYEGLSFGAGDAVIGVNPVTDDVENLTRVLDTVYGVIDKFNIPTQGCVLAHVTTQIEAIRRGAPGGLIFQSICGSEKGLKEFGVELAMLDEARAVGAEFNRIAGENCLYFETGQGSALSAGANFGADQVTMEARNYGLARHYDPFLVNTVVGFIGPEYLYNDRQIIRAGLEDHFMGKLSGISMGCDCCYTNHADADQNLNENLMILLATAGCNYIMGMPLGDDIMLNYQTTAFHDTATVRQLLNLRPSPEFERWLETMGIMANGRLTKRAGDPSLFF

[2] = molecular target: T1, EutB subunit of ethanolamine …; assay: pull-down; remark: listed apart in the source

B1: EutC subunit of ethanolamine ammonia-lyase (EAL) from the EALH6 construct (natural protein)
chain: MDQKQIEEIVRSVMASMGQDVPQPAAPSTQEGAKPQCAAPTVTESCALDLGSAEAKAWIGVENPHRADVLTELRRSTAARVCTGRAGPRPRTQALLRFLADHSRSKDTVLKEVPEEWVKAQGLLEVRSEISDKNLYLTRPDMGRRLSPEAIDALKSQCVMNPDVQVVVSDGLSTDAITANYEEILPPLLAGLKQAGLNVGTPFFVRYGRVKIEDQIGEILGAKVVILLVGERPGLGQSESLSCYAVYSPRVATTVEADRTCISNIHQGGTPPVEAAAVIVDLAKRMLEQKASGINMTR
- subunit molar ratio after elution with 250 mM imidazole [1]: 0.32 mol EutC per mol EutB
- stoichiometry N [2]: 1.01 mol EutC per mol EutB

— PMC3624071 (Biochemistry, 2013)
